Laboratory results as given in PMC7717579, “Phosphoregulation of HORMA domain protein HIM-3 promotes asymmetric synaptonemal complex disassembly in meiotic prophase in Caenorhabditis elegans” (PLoS Genetics, 2020).
Non-standard residues stand in square brackets, D forms with d. No end group written: not given here. pY = N[C@@H](Cc1ccc(OP(=O)(O)O)cc1)C(=O)O

Molecular target: T1, HTP-2 protein (full length) (C. elegans)
T1 construct: HTP-2, HORMA domain protein of the meiotic chromosome axis, C. elegans, full length; also called HTP-2 proteins
Experiment: fluorescence polarisation; 50 nM FITC peptide with various concentrations of HTP-2; 20 mM Tris pH 7.5, 300 mM NaCl, 10% glycerol, 1 mM DTT, 0.1% NP-40; 1 hour at room temperature; 384-well plates; single-site binding model
Settings: both partners purified

B1: HIM-3 closure motif peptide with the S282A substitution, fluorescein-tagged (peptide)
chain: RDSPYGLAQGITKKNKD
modifications: also: fluorescein (FITC) conjugated, site not given here
Kd: 11.3 µM

B2: HIM-3 closure motif peptide, unmodified (wild type), fluorescein-tagged (peptide)
chain: RDSPYGLSQGITKKNKD
modifications: also: fluorescein (FITC) conjugated, site not given here
Kd: 5.8 µM

B3: HIM-3 closure motif peptide phosphorylated at Tyr279, fluorescein-tagged (peptide)
chain: RDSP[pY]GLSQGITKKNKD
modifications: also: fluorescein (FITC) conjugated, site not given here
Kd: 16.1 µM
